What was measured:
soybean seeds = assay: Free amino acid concentration in seeds of soybean transformed with threonine deaminase constructs (TCA extraction, OPA HPLC, fluorescence); type: in vivo; details: transformed soybean plants
Protocol: The concentration of free isoleucine in seeds was determined by crushing approximately 50 mg of seed, placing the crushed material in a centrifuge vial, and then weighing. One mL of 5% trichloroacetic acid was added to each sample vial. The samples were mixed, using a vortex mixer, at room temperature for 15 minutes. The samples were then spun in a microcentrifuge for 15 minutes at 14,000 rpm. Some of the supernatant was then removed, placed in a HPLC vial and sealed. Samples were kept at 4° C. prior to analysis. A single seed analysis was performed on all R1 soybean seed, with 5 seeds per event, and one injection per seed. For subsequent generations representing the R2 and R3 seeds, a bulk assay having 10 seeds for each event, and one injection per event was used. The samples were analyzed using the Agilent Technologies 1100 series HPLC system. A 0.5 μL aliquot of the sample was derivatized with 2.5 μL of OPA (o-phthalaldehyde and 3-mercaptopropionic acid in borate buffer, Hewlett-Packard PN 5061-3335) reagent in 10 μl of 0.4 N borate buffer pH 10.2 (Hewlett-Packard, PN 5061-3339). The derivative was injected onto an Agilent Technologies Eclipse® XDB-C18 3.5 μm, 4.6×75 mm at 2 mL/min flow rate. […] Isoleucine concentrations were measured using fluorescence detection (excitation at 340 nm, emission at 450 nm) and values were calculated from a standard curve ranging from 10 to 800 μg/mL. […]

[1] = molecular target: T1, Arabidopsis threonine deaminase (Arabidopsis thaliana, UniProt Q9ZSS6); assay: Kinetics data for Arabidopsis threonine deaminases (comparison in Table 4, FIG. 6); type: biochemical; details: initial velocity vs threonine concentration
T1 sequence (Q9ZSS6 92-592): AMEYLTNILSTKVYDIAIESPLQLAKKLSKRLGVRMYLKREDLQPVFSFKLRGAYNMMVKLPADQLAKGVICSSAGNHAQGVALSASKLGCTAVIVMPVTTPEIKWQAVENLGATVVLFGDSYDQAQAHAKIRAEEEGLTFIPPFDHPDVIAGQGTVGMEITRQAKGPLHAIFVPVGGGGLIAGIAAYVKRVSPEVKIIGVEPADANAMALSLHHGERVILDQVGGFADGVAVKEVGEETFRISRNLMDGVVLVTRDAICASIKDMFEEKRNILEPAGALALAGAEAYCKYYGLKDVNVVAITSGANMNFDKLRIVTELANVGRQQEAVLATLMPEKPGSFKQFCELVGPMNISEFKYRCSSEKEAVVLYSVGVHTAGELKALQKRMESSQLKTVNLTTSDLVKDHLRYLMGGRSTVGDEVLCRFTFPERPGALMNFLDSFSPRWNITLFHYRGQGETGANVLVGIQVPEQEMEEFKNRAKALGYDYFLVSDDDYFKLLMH

[2] = system: E. coli threonine deaminase; assay: Steady state kinetic analysis of E. coli ilvA threonine deaminase variants, continuous assay of α-ketobutyrate at 230 nm, with and without L-isoleucine; type: biochemical; details: for Km: E. coli ilvA TD expressed in E. coli, crude extract, pH 7.5, read-out: Km^Thr; for IC50: inhibition of TD activity by L-isoleucine
Protocol: Before conducting further transformation experiments using the isolated ilvA alleles in transgenic plants, each allele was over-expressed in E. coli to determine its kinetic parameters. Kinetics data on threonine deaminases containing various mutations, and a comparison to data available for threonine deaminases from Arabidopsis, are provided in Table 4. The E. coli ilvA481 variants were subcloned into pSE380 (Invitrogen, Carlsbad, Calif.) and expression was induced with 0.2 mM IPTG at 37° C. for 3 hours. Expression of the E. coli alleles was high and fairly consistent as visualized by SDS-PAGE.
The effects of amino acid substitutions at Leu481 in ilvA were assessed by steady state kinetic analysis in the presence and absence of L-isoleucine. Threonine deaminase polypeptides for use in in vitro kinetics studies were extracted from E. coli cells in assay buffer containing 50 mM potassium phosphate (pH7.5), 1 mM dithiothreitol (DTT), and 0.5 mM ethylenediamine-tetraacetate. A continuous assay method was employed to monitor the formation of α-ketobutyrate directly at 230 nm (ε230 (pH7.5)=540 M^−1cm^−1 whereas threonine absorption was negligible (˜1%)). The assay was initiated by adding 20 μl of crude extract diluted 1:20 v/v to the assay vessel containing L-threonine (between 2.5 mM and 50 mM) in a final volume of 1 mL. For L-isoleucine inhibition, L-isoleucine was added between 0 mM and 20 mM. The kinetic parameters were determined by fitting the data points to the equations using GraFit 4.0 software (Erithacus Software, Surrey, UK). For comparison, the kcat values of L481 alleles were normalized to the kcat value for the wild type IlvA enzyme. Enzymes represented in FIG. 7 are: wild type E. coli threonine deaminase (circles), L481Y TD enzyme (diamonds), L481F TD enzyme (triangles), and the L481T TD enzyme (squares). Table 4 also summarizes the kinetic parameters of the variant threonine deaminase enzymes produced by the various E. coli ilvA alleles.

## ilvA466: mutagenized E. coli threonine deaminase gene containing the L481F mutation
Soybean seeds
  free isoleucine concentration in the seed: > 1300 µg/g

## ilvA219: mutagenized E. coli threonine deaminase gene containing the L447F mutation
Soybean seeds
  free isoleucine concentration in the seed: > 600 µg/g

B1: Wild type Arabidopsis: wild type Arabidopsis threonine deaminase polypeptide (protein, UniProt Q9ZSS6 92-592, looked up)
Threonine dehydratase …: AMEYLTNILSTKVYDIAIESPLQLAKKLSKRLGVRMYLKREDLQPVFSFKLRGAYNMMVKLPADQLAKGVICSSAGNHAQGVALSASKLGCTAVIVMPVTTPEIKWQAVENLGATVVLFGDSYDQAQAHAKIRAEEEGLTFIPPFDHPDVIAGQGTVGMEITRQAKGPLHAIFVPVGGGGLIAGIAAYVKRVSPEVKIIGVEPADANAMALSLHHGERVILDQVGGFADGVAVKEVGEETFRISRNLMDGVVLVTRDAICASIKDMFEEKRNILEPAGALALAGAEAYCKYYGLKDVNVVAITSGANMNFDKLRIVTELANVGRQQEAVLATLMPEKPGSFKQFCELVGPMNISEFKYRCSSEKEAVVLYSVGVHTAGELKALQKRMESSQLKTVNLTTSDLVKDHLRYLMGGRSTVGDEVLCRFTFPERPGALMNFLDSFSPRWNITLFHYRGQGETGANVLVGIQVPEQEMEEFKNRAKALGYDYFLVSDDDYFKLLMH
[1]
  cooperativity in substrate binding: independent activity

B2: L481K: E. coli threonine deaminase, Leu at position 481 replaced with Lys (protein, listed as Escherichia coli)
chain: MADSQPLSGAPEGAEYLRAVLRAPVYEAAQVTPLQKMEKLSSRLDNVILVKREDRQPVHSFKLRGAYAMMAGLTEEQKAHGVITASAGNHAQGVAFSSARLGVKALIVMPTATADIKVDRLRGFGGEVLLHGANFDEAKRKAIELSQQQGFTWVPPFDHPMVIAGQGTLALELLQQDAHLDRVFVPVGGGGLAACVAVLIKQLMPQIKVIAVEAEDSACLKAALDAGHPVDLPRVGLFAEGVAVKRIGDETFRLCQEYLDDIITVDSDAICAAMKDLFEDVRAVAEPSGALALAGMKKYIALHNIRGERLAHILSGANVNFHGLRYVSERCELVEQREALLAVTIPEEKGSFLKFCQLLGGRSVTEFNYRFADAKNACIFVGVRLSRGLEERKEILQMLNDGGYSVVDLSDDEMAKLHVRYMVGGRPSHPLQERLYSFEFPESPGALLRFLNTLGTYWNISLFHYRSHGTDYGRVLAAFEKGDHEPDFETRLNELGYDCHDETNNPAFRFFLAG
[2]; expressed in E. coli
  enzyme activity: poor enzyme activity

B3: L481M: E. coli threonine deaminase, Leu at position 481 replaced with Met (protein, listed as Escherichia coli)
chain: MADSQPLSGAPEGAEYLRAVLRAPVYEAAQVTPLQKMEKLSSRLDNVILVKREDRQPVHSFKLRGAYAMMAGLTEEQKAHGVITASAGNHAQGVAFSSARLGVKALIVMPTATADIKVDRLRGFGGEVLLHGANFDEAKRKAIELSQQQGFTWVPPFDHPMVIAGQGTLALELLQQDAHLDRVFVPVGGGGLAACVAVLIKQLMPQIKVIAVEAEDSACLKAALDAGHPVDLPRVGLFAEGVAVKRIGDETFRLCQEYLDDIITVDSDAICAAMKDLFEDVRAVAEPSGALALAGMKKYIALHNIRGERLAHILSGANVNFHGLRYVSERCELVEQREALLAVTIPEEKGSFLKFCQLLGGRSVTEFNYRFADAKNACIFVGVRLSRGLEERKEILQMLNDGGYSVVDLSDDEMAKLHVRYMVGGRPSHPLQERLYSFEFPESPGALLRFLNTLGTYWNISLFHYRSHGTDYGRVLAAFEMGDHEPDFETRLNELGYDCHDETNNPAFRFFLAG
[2]
  Km: 6.4 mM
  IC50: 100 µM

B4: L481V: E. coli threonine deaminase, Leu at position 481 replaced with Val (protein, listed as Escherichia coli)
chain: MADSQPLSGAPEGAEYLRAVLRAPVYEAAQVTPLQKMEKLSSRLDNVILVKREDRQPVHSFKLRGAYAMMAGLTEEQKAHGVITASAGNHAQGVAFSSARLGVKALIVMPTATADIKVDRLRGFGGEVLLHGANFDEAKRKAIELSQQQGFTWVPPFDHPMVIAGQGTLALELLQQDAHLDRVFVPVGGGGLAACVAVLIKQLMPQIKVIAVEAEDSACLKAALDAGHPVDLPRVGLFAEGVAVKRIGDETFRLCQEYLDDIITVDSDAICAAMKDLFEDVRAVAEPSGALALAGMKKYIALHNIRGERLAHILSGANVNFHGLRYVSERCELVEQREALLAVTIPEEKGSFLKFCQLLGGRSVTEFNYRFADAKNACIFVGVRLSRGLEERKEILQMLNDGGYSVVDLSDDEMAKLHVRYMVGGRPSHPLQERLYSFEFPESPGALLRFLNTLGTYWNISLFHYRSHGTDYGRVLAAFEVGDHEPDFETRLNELGYDCHDETNNPAFRFFLAG
[2]
  Km: 7.1 mM
  IC50: 97 µM

B5: L447F (ilvA219): E. coli threonine deaminase, Leu at position 447 replaced with Phe (protein, listed as Escherichia coli)
chain: MADSQPLSGAPEGAEYLRAVLRAPVYEAAQVTPLQKMEKLSSRLDNVILVKREDRQPVHSFKLRGAYAMMAGLTEEQKAHGVITASAGNHAQGVAFSSARLGVKALIVMPTATADIKVDRLRGFGGEVLLHGANFDEAKRKAIELSQQQGFTWVPPFDHPMVIAGQGTLALELLQQDAHLDRVFVPVGGGGLAACVAVLIKQLMPQIKVIAVEAEDSACLKAALDAGHPVDLPRVGLFAEGVAVKRIGDETFRLCQEYLDDIITVDSDAICAAMKDLFEDVRAVAEPSGALALAGMKKYIALHNIRGERLAHILSGANVNFHGLRYVSERCELVEQREALLAVTIPEEKGSFLKFCQLLGGRSVTEFNYRFADAKNACIFVGVRLSRGLEERKEILQMLNDGGYSVVDLSDDEMAKLHVRYMVGGRPSHPLQERLYSFEFPESPGAFLRFLNTLGTYWNISLFHYRSHGTDYGRVLAAFELGDHEPDFETRLNELGYDCHDETNNPAFRFFLAG
[2]; initial velocity vs threonine concentration
  cooperativity in substrate binding: negative cooperativity
